Experiment: soluble on expression in E. coli; label from the status in PepcDB or PDB records

Sequence | soluble on expression in E. coli
MGSDKIHHHHHHMSRTTVLRSAESDLTLHGRDAMGTLMRTGTLTNFLKVAQQLDFDPQPLLRKLGLTKEMLADPECLIPGSASVTLLKESARLTQCPTFGLRVAERWQLSDLGVISVLLTHQSTLRDAVGTLIQYRHLLNEFLVIRMEDVGRKVIVREELVADEAGTSIQSTELVLGSLSRLCSTLMGATWHPLSVHFTHDPPPDLRLHRRVFGGKLEFASSFNGMICRAADMDFPNPIADPVMARHARRLLEGLPGAKEPSIVLEVRKAIYLLLPLGRATIEQVAQGLGMNVRMLQRQLESAGMVFSDMVNGVRRDLVIHYMDNKSYTLGRIAQSLGYSAYGSFVRWFAAQFGMTPTRWQSLRQQKEDGRSPIQIHC | not soluble
SATLLHDAVMNPAEVVKQRLQMYNSQHQSAFSCIRTVWRTEGLGAFYRSYTTQLTMNIPFQSIHFITYEFLQEQVNPRRDYNPQSHIISGGLAGALAAAATTPLDVCKTLLNTQENMALSLANVSGRLSGMANAFRTVYQLNGLAGYFKGIQARVIYQMPSTAISWSVYEFFKYILTKRQLENRTLY | soluble
MSMPKCEICNDDYSSEDGDHSPRNLKCSHTLCEGCIKKMLGNSKIVCPFCREPTDMPGNKMESLHKNFALIQAIQLFAKTTKITEVEEPMLEKCKHHPDYLVETVCVEEDCSESGKYMCRKCVSTLSHLHHTKKSLIAEMEKSRELLQGRINRLNKTIGEIDQDVRKLRMSQIAFREGGNNYQQKANEITTFYSRIREMVNEREKEALVKLKEVAKSILDENDSALPPLLRSHQKLTEYVRKATEAKKRNNAIACITAAEDLLNKTKDCCDEEYYTIESQDINVCIKPIDIPVATITRK | not soluble
GPGSMFRAVYSNPAANVPASNCMTDGFPLLPPQRPHSSGSQLMRGCPLPWNDGRTLMYGVPAKNEASLQQVSYSRTLGQRWSSGSADNAAQCAAATHSTVCFASCASGANGSAGGSPVLLQPAMGVPAFVTDNQQLPSMVAQSSPTVSRLTSGMCSTSEGSATFGASTTSATSSTVGNCAATGTAATTNGSMAHTGTSPALPGFQMSVPLPTSAMTAVAAPPQQPQTCFWLSHTTGALTPIRKEDMMTISDTSASTNTHSYAMPPPPTMPSQPSSASATSVPTYLMAPQVSSFGGAMVQAFSELLSGSTAFSVPALPLPQPPRPPKTLNGLQYHLGELYEGFVKRYNPNRGFGFLTATTHVTVVNDGSNSDSATGTPIASLNNTTTAVPTTGEAETPKEYRTPVHLGDIFVHQSSMQMEGFRTLPVGGRVRFCIGYKDGQQTLQAVNVELLPQVLPPNVEMASSP | not soluble
MIETSLDFSGLNDIAKDLEALSRAENNKVLRDATRAGAEVLKEEVIDRAPVRTGKLKKNVVVVTQKSRRRGEISSGVHIRGVNPRTGNSDNTMKANNPRNAFYWRFVELGTANMPAHPFVRPAYDTREEEAASVAIARMNQAIDEVLSK | not soluble
MKTIIREMVETIKQLFAQKQQMQEPVVANYEVSEIVEQKTLKKKEESEKTGEKTGKSNKWSQSLTLQLKEYLNDNFDFRYNNLTGATEYREKSGKNCFRPIDEREMNGMIVDARLEGIPCWRGDVPTMVLSNKVESYNPFHLYVKELPGWDGVDRVTPLLLRVSDNEIWLRGGRCWLRAMLSQWSGEERLHANVLTPVLISGKQGLSKSTFCRLLMPDSLRHYFIDNLNLAAGSSPEKKLVKNGLINLDEFDKIKESQQATLKNLLQMVNVPVFRGKRLGWVNESRLASFIATTNVYQVLIDSTGSRRFLCVEVLKPISEEPLEHKQIYAQLKEELKSGAPDYLNKEEEKALQKHNKAYYRQSLLEDVFHCCFRHPLETEKGIWLTTAEIFQVMRKFNSAALKEVSARQLGLKLSAMGYMAKHTSFGNRYYVFNLSAEKKDASL | not soluble
THANIQGLVKHVDYMAFSDQDTFLSVSNYAFDAFTFDFYASMLNAARLIIADEHTLLDTERLTDLILQENVNVMFATTALFNLLTDAGEDWMKGLRCILFGGERASVPHVRKALRIMGPGKLINCYGPTEGTVFATAHVVHDLPDSISSLPIGKPISN | not soluble
MAHHHHHHMPPSTYAATAANAEAQGDDVDMHVMTYDQRCHGRSTFVGGEDHLSIEVLVRDFLDVLQYAKTELYSNSNVYVLGHSLGGAVVARALSGNKSALERVSGVLLVDVVEGTAQLSLQHMKSFLKNRPNTFPEVKDAEVWFLRMGGMQNPQGAAVSVPPLLQKNDETGLWQWRTDIRKMESVWDGWFAGLDEAFISLPCAKMLCTANAERLDKTLTVAQMQGKFQLEVIGNGCGHYVMDDATPTVVAKVRRFVKRNEELAQKLQLMNKNLSGQKINTTVPPTRT | not soluble
MNYNSKMEPLAIPEYGRNIQNMVNYCMTIGDRDERNRCAQTIITIMGNMFPERRENSETKHILWDHLAIMSGFKLDIDYPMEIISPELLERKPKAVSYSANDIVYRHYGHLIQEMILKACAMEQGEERYALELLIANQMKRSYLTWNKDTVDDYKIFKDLYELSEGRIELTEESCHLTIPNASDRKDNNNTKRNKVFRRK | not soluble
AIANNSHTGFVGEMFGSSDILRSVSIPSEADKPMIVELAVAAMEELVRMAQTGDPLWVSSDNSVEILNEEEYFRTFPRGIGPKPIGLRSEASRESTVVIMNHINLIEILMDVNQWSSVFCGIVSRALTLEVLSTGVAGNYNGALQVMTAEFQVPSPLVPTRENYFVRYCKQHSDGIWAVVDVSLDSLRPSPITRSRRRPSGCLIQELQNGYSKVTWVEHIEVDDRSVHNMYKPLVNTGLAFGAKRWVATLDRQCERLASSMASNIPACDLSVITSPEGRKSMLKLAERMVMSFCTGVGASTAHAWTTLSTTGSDDVRVMTRKSV | soluble
MDMELTYIYHSGFALSGDGFTVIMDYYRDSEDGQAQADLNRLMDGTFSNQEAGMPEGTVHSELLRRPGKLYVLASHFHPDHFNKEVLQWREQRPDIIYIFSKDILRHRRAQKEDAVWLKKGEEYKDETLSVRAFGSTDVGVSFLLQTGGKKIFHAGDLNNWHWMDESTEAEWKGAEKNFLHELDDLYAYTPEVDVAMFPVDPRLGKEYMRGAGQFVTKIKTHIFVPMHFTPEYAKANAFRDFAEAHGVRFVSLTHRGQKIEIE | soluble
SLPPLNSLISQFEGRVYDQIINFNWHSKPENLKVIIIDIDEKSLEQEGRWPWPRSKIAELLNKLQENGVVTVGFDIVMSEAETNYALGLIEKLSQFSGKMTTDQKQLIATLNSVANQVDNDQTLVNALGKNNAILGFFFHNSEGIRKGSLPPPLRDTDSNPLLASKLSVYQFTNFNGNLAAFTAAATSGGFVTNLPDKDGVVRHALLLANYKNNLYPSLSLAIAMNYLLTDKVNLKKYNNELTGIELDGLQIPTNRKGQILIPFWGGPGTLNYYSATDILNNQFNPDELAGSIALVGSSITLLSDLHHTPVAQLFPGVEIVGNIVKGLVEQKIPREFDWESLQG | not soluble
GSHMKETKKAGPIELPEELEAQRQRHNDPRRPPWPLLHQRVVLLREGKGAPEDIALMWEQTKHYYPADWLIPLELTQVLKYSSGKYLQTYVADPDEMRKEVLMQLLNVKYGRVSDPNGGRVNKDVEEIISMAVDDLENMDLNPAADAVLIPTHT | soluble
MFKPELLSPAGTLKNMRYAFAYGADAVYAGQPRYSLRVRNNEFNHENLQLGINEAHALGKKFYVVVNIAPHNAKLKTFIRDLKPVVEMGPDALIMSDPGLIMLVREHFPEMPIHLSVQANAVNWATVKFWQQMGLTRVILSRELSLEEIEEIRNQVPDMEIEIFVHGALCMAYSGRCLLSGYINKRDPNQGTCTNACRWEYNVQEGKEDDVGNIVHKYEPIPVQNVEPTLGIGAPTDKVFMIEEAQRPGEYMTAFEDEHGTYIMNSKDLRAIAHVERLTKMGVHSLKIEGRTKSFYYCARTAQVYRKAIDDAAAGKPFDTSLLETLEGLAHRGYTEGFLRRHTHDDYQNYEYGYSVSDRQQFVGEFTGERKGDLAAVAVKNKFSVGDSLELMTPQGNINFTLEHMENAKGEAMPIAPGDGYTVWLPVPQDLELNYALLMRNFSGETTRNPHGK | soluble
MLRCADGALYTGVSTDVARRYRQHQAGKGARYTRLNPPLAVELVIEYPDRSAALRAEHAFKRLSAAAKRDFLRAHGDAGPSSLEHHHHHH | not soluble
MNKNIDTVREIITVASILIKFSREDIVENRANFIAFLNEIGVTHEGRKLNQNSFRKIVSELTQEDKKTLIDEFNEGFEGVYRYLEMYTNK | soluble
MAQTTINEQTLVNEQRLLAYDCFQNTNKVGLLSALEYLDFVNHLVKSNQIKYLLVPSASQTVYQHVFFDHFRFLSFDNNLLSGFGLAIRLHKEAETVFMLVEKTKQTETEIKKLLEAVKQFSGLKLVVLLVNSPFENKRTKLSYEIVKIIKKHGYQYKRYCRKNFEKKFFNTWNHQKRKQKTKNNLFFVELNSQFAFGTSMANSNSFDLSFTSFKERFNTENNLDIDVHFNVPHKYLLKNLESIKHHLQIDNNTIWKQAFINFAGQLLLYFENLQVFAQEASTLQVNAIVIKQDAYFIVEVMKGYNYDNNCICLLEANKDQNVGLTTASTNTLIGDIKQYEPCFFIEK | soluble
GMASEFDLIQRYFRRAHPSAVLGVGDDAALIQPSPGMELAVSADMLVANTHFYPNIDPWLIGWKSLAVNISDMAAMGAQPRWATLTIALPEADEDWISKFAAGFFACAAQFDIALIGGDTTRGPLTISVQIMGETPPGASLLRSTARADDDIWVSGPLGDAALALAAIQGRYPLSDTELAACGKALHQPQPRVVLGQALRGLAHSALDISDGLLADLGHILEHSQVGAEVWLKAIPKSEVVSAHSQEVAIQKMILSGGDDYELCFTASTQHRQQIADIGRQLSLDMAVIGRITDTQQLVIHGLDDAPLTLKEHGFDHFA | soluble
MGSDKIHHHHHHMINDHQYVADLHIHLGQTASNRPVKITAARTLTLENIIDYARTVKGIDIIGVIDCHVPEVLEGLKHSIESGEAYELKGGGIRFPDVTLILGTEIEVYDEESLGPVHVLAYTPTWNAMMELSSWMGSRMKNPTLSSQRLYETSIVLQQKVKELGGLFIPAHAFTPFKGVYGKGVKQSMGEIFDLALIDGIELGLSADTSMADQVEELHRFPFLSNSDAHSLEKLAREYQILHLYEPSFQAFQSALRDKDKCSIVANYGLNPYLGKYYETTCAQCRTPMKGSACETCGSSKVVKGVSERLTELATASENNGKQRPPYVHQIPLEFIPKVGKRTLARLREAFGTDMDILHQATFEQLCDVIPNHIAEAIVIAREGKATIKRGGGGHYGKMIGTE | not soluble
MAHHHHHHMDSLYFIGKAQFHQLATHISLYHEDMSDGYKHLSTDAVMAVGLKPHKFTYWNVPMMSGYLGKTVPLDIHGGYVMIDEEKVMPMATSYGMLRYALLTSAVRAKEGGRWRYDFMTMNSTLAIGTAAGLGLLSFGRQRIGWIRRHPIGSVMASFVACLTTTVIARQGIKALGIGIVQAQNSHKRALNCLHCVDCLEDVNTYTLKQIEELKAQQIPQQAGMPPPPEEYVRRFKKGVEMQCRLLETDMEEVRLIRKWAGASLCDVHQHLRDDPMGYKEPHGLVLLASDRARAAERPPLATMPDDKKGIRPAKS | not soluble
MGSSHHHHHHSSGLVPRGSHMSLDMKEHPDAEVQKNQVLTLEDWKEKWVTRHISFHQEQGHQLLKKHLDTFLKGQSGLRVFFPLCGKAIEMKWFADRGHTVVGVEISEIGIREFFAEQNLSYTEEPLAEIAGAKVFKSSSGSISLYCCSIFDLPRANIGKFDRIWDRGALVAINPGDHDRYADIILSLLRKEFQYLVAVLSYDPTKHAGPPFYVPSAELKRLFGTKCSMQCLEEVDALEERHKAWGLDYLFEKLYLLTEK | soluble

From the DeepSol protein solubility set
